Measurements as given in patent US20230302148A1, “PHARMACEUTICAL COMPOSITION COMPRISING LONG-ACTING CONJUGATE OF TRIPLE GLUCAGON/GLP-1/GIP RECEPTOR AGONIST” (HANMI PHARM. CO., LTD., priority 2020, published 2023).
Bridges are numbered along the chain shown (N, C = ends). Where no end group is shown, it is not given here. [ ]: non-standard residue; d: D form. The star is where a group is joined. Acetyl(2-(4-imidazolyl)) = O=C(Cc1c[nH]cn1)*; Aib = CC(C)(N)C(=O)O

Tests used:
Assay in all cases: cell-based or functional assay
human GCG receptor = human GCG receptor (human, UniProt P47871 26-477)
human GIP receptor = biological target: T1, human GIP receptor (human, UniProt P48546 22-466)
T1 sequence (looked up): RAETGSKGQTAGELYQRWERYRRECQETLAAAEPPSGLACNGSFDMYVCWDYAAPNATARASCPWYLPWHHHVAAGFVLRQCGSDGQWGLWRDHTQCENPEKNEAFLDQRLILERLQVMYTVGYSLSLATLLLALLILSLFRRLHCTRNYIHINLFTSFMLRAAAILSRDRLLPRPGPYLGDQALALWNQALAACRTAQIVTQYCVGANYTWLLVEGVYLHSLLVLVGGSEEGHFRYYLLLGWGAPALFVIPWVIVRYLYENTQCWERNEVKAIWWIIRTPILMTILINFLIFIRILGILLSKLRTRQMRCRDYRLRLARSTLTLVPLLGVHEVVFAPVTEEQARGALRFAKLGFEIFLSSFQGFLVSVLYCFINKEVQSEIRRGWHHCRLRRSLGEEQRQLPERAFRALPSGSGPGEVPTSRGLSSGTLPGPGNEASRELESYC

human GLP-1 receptor = human GLP-1 receptor (human, UniProt P43220 24-463)

human GCG receptor, sequence (P47871 26-477): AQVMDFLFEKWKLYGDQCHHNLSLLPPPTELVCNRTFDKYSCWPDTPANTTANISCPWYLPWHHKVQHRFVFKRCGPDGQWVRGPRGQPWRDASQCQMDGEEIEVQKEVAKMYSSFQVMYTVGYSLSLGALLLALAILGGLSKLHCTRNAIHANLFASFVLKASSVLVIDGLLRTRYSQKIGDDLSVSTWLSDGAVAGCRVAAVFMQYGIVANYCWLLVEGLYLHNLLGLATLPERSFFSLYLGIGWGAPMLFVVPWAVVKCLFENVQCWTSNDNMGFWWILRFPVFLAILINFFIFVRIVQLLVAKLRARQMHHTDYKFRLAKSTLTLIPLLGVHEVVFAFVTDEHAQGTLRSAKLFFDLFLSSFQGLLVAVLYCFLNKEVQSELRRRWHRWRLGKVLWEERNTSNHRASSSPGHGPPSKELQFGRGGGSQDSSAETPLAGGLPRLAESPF

| Binder | In vitro activity relative to native peptide (%) vs. Glucagon (human GCG receptor) | In vitro activity relative to native peptide (%) vs. GIP (human GIP receptor) | In vitro activity relative to native peptide (%) vs. GLP-1 (human GLP-1 receptor) |
| --- | --- | --- | --- |
| H[Aib]EGTFTSDYSIAMDEIHQKDFVDWLLAEC (bridge 16-20) [triple agonist of SEQ ID NO: 54] | 1.4% | 0.1% | 30.6% |
| [Acetyl(2-(4-imidazolyl))][Aib]QGTFTSDKSSYLDERAAQDFVQWLLDGGPSSGAPPPSS (not fully specified) [triple agonist of SEQ ID NO: 38] | 1% | 1% | 2.3% |
| H[Aib]QGTFTSDYSKYLDEKRQKEFVNWLLAQKC (bridge 16-20) [triple agonist of SEQ ID NO: 34] | 0.92% | 0.6% | 19.1% |
| Y[Aib]QGTFTSDYSKYLDEKRAKEFVQWLLDHHCSSGQPPPS (bridge 16-20) [triple agonist of SEQ ID NO: 43] | 88.4% | 3.7% | 12.6% |
| H[Aib]QGTFTSDYSKYLDECRQKEFVQWLLNGGPSSGAPPPSG (bridge 16-20) [triple agonist of SEQ ID NO: 37] | 6.21% | 2.2% | 236% |
| [Acetyl(2-(4-imidazolyl))][Aib]QGTFTSDYSICMDEKHQKDFVNWLLNTK (bridge 16-20; not fully specified) [triple agonist of SEQ ID NO: 59] | < 0.1% | 4% | 40.3% |
| H[Aib]QGTFTSDKSKYLDECAAQDFVQWLLDGGPSSGAPPPS [triple agonist of SEQ ID NO: 41] | < 0.1% | < 0.1% | 34.3% |
| H[Aib]QGTFTSDVSSYLDGQAAKEFIAWLVKGC [triple agonist of SEQ ID NO: 1] | < 0.1% | < 0.1% | 3.2% |
| H[Aib]QGTFTSDKSKYLDERACQDFVQWLLDGGPSSGAPPPS [triple agonist of SEQ ID NO: 40] | < 0.1% | < 0.1% | 75.2% |
| H[Aib]QGTFTSDYSKYLDEKRQKEFVQWLLDTC (bridge 16-20) [triple agonist of SEQ ID NO: 52] | 7.5% | 0.3% | 44.1% |
| H[Aib]QGTFTSDYSIAMDEIHQKDFVNWLLNTKC (bridge 16-20) [triple agonist of SEQ ID NO: 35] | < 0.1% | 1.3% | 7.5% |
| HGQGTFTSDCSKQLDGQAAQEFVAWLLAGGPSSGAPPPS [triple agonist of SEQ ID NO: 44] | < 0.1% | < 0.1% | 1.3% |
| HGQGTFTSDCSKYLDGQRAQEFVAWLLAGGPSSGAPPPS [triple agonist of SEQ ID NO: 47] | < 0.1% | < 0.1% | 2.4% |
| HGQGTFTSDCSKYLDEQHAQEFVAWLLAGGPSSGAPPPS [triple agonist of SEQ ID NO: 46] | < 0.1% | < 0.1% | 1.4% |
| HGQGTFTSDCSKYMDGQAAQDFVAWLLAGGPSSGAPPPS [triple agonist of SEQ ID NO: 45] | < 0.1% | < 0.1% | 6.6% |
| HGQGTFTSDCSKYLDGQRAQDFVNWLLAGGPSSGAPPPS [triple agonist of SEQ ID NO: 48] | < 0.1% | < 0.1% | 1.5% |
| [Acetyl(2-(4-imidazolyl))][Aib]QGTFTSDYSICMDEIHQKDFVNWLLNTK (bridge 16-20; not fully specified) [triple agonist of SEQ ID NO: 49] | < 0.1% | 3.3% | 29.8% |
| H[Aib]QGTFTSDYSKYLDEKRAKEFVQWLLDHHPSSGQPPPSC (bridge 16-20) [triple agonist of SEQ ID NO: 50] | 50.5% | 2.7% | 67.4% |
| H[Aib]QGTFTSDVSSYLLGQQQKEFIAWLVKGC [triple agonist of SEQ ID NO: 4] | < 0.1% | < 0.1% | 8.5% |
| Y[Aib]QGTFTSDYSKYLDEKRAKEFVQWLLDHHPSSGQPPPSC (bridge 16-20) [triple agonist of SEQ ID NO: 42] | 206% | 7.8% | 33.9% |
| H[Aib]EGTFTSDYSIAMDEIHQKDFVNWLLAQC (bridge 16-20) [triple agonist of SEQ ID NO: 53] | 8.4% | 1.3% | 161% |
| H[Aib]QGTFTSDYSIAMDEIHQKDFVNWLLNTC (bridge 16-20) [triple agonist of SEQ ID NO: 57] | < 0.1% | 0.3% | 11.7% |
| H[Aib]QGTFTSDYSKYLDEKRQKEFVQWLLNTC (bridge 16-20) [triple agonist of SEQ ID NO: 51] | 2% | 0.1% | 14.4% |
| H[Aib]QGTFTSDYSKYLDGQHAQCFVAWLLAGGGPSSGAPPPS [triple agonist of SEQ ID NO: 39] | 0.53% | < 0.1% | 13.9% |
| H[Aib]QGTFTSDYSKYLDEKRQKEFVQWLLNTKC (bridge 16-20) [triple agonist of SEQ ID NO: 58] | 2.6% | 0.2% | 39.1% |
| H[Aib]QGTFTSDVSSYLDGQAAKEFVAWLLKGC [triple agonist of SEQ ID NO: 6] | < 0.1% | < 0.1% | 17% |
| H[Aib]QGTFTSDYSKYLCEKRQKEFVQWLLNGGPSSGAPPPSG (bridge 16-20) [triple agonist of SEQ ID NO: 36] | 0.39% | 0.2% | 37.4% |
| H[Aib]QGTFTSDVSSYLLGQQQKEFIAWLVKGGGPSSGAPPPSC [triple agonist of SEQ ID NO: 5] | < 0.1% | < 0.1% | 42.1% |
| H[Aib]QGTFTSDYSKYLDEKRQKEFVNWLLAQC (bridge 16-20) [triple agonist of SEQ ID NO: 56] | 4.9% | 0.8% | 57.9% |
| H[Aib]QGTFTSDYSIAMDEIHQKDFVNWLLAQC (bridge 16-20) [triple agonist of SEQ ID NO: 55] | 0.7% | 2.4% | 27.1% |
